Test results as given in article PMC5916898, “Global profiling of protein–DNA and protein–nucleosome binding affinities using quantitative mass spectrometry”.

Columns and labels:
Experiment in all cases: pulldown; 150 mM NaCl, 50 mM Tris pH 8, 0.25% NP-40, 1 mM TCEP; 4 C, 2 h; 100 ug HeLa nuclear lysate
Details in all cases: protein: extract; label: 5' biotin (strand 1)
[1] = biological target: ZFHX3 (Homo sapiens, UniProt Q15911)
[2] = biological target: T1, ZBTB20 (Homo sapiens, UniProt Q9HC78)
T1 sequence: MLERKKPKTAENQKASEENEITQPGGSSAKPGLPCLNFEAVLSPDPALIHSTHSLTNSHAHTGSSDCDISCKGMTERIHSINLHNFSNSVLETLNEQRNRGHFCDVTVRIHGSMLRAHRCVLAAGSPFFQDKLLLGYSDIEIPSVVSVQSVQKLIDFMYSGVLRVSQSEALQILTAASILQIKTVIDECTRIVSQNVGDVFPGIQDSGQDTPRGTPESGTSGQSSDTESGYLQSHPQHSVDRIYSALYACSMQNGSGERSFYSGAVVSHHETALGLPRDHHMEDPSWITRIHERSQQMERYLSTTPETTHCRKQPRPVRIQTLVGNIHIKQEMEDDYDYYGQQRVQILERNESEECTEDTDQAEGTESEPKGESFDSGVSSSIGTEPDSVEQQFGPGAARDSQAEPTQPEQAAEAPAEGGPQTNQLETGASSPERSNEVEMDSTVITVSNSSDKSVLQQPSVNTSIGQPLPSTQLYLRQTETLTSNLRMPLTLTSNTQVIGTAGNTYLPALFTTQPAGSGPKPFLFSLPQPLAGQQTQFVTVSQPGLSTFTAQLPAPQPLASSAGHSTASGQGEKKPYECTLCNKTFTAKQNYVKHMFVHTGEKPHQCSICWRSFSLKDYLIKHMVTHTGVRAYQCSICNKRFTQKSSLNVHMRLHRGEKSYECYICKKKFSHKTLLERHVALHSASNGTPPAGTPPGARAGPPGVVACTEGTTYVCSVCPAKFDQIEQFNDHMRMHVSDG

[3] = biological target: T2, ZBTB43 (Homo sapiens, UniProt O43298)
T2 sequence: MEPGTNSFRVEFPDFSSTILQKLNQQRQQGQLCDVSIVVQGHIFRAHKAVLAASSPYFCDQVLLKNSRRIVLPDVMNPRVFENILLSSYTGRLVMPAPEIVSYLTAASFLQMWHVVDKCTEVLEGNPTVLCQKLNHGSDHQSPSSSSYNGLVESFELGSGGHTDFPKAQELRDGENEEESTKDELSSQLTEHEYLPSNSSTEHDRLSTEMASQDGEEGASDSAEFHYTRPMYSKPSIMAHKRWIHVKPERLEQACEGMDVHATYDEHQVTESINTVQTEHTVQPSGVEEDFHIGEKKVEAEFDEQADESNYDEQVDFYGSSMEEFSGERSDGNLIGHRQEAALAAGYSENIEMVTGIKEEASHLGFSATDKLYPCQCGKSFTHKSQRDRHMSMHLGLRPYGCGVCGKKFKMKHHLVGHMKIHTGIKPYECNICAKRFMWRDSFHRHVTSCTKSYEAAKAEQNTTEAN

[4] = biological target: T3, ESRRA (Homo sapiens, UniProt P11474)
T3 sequence: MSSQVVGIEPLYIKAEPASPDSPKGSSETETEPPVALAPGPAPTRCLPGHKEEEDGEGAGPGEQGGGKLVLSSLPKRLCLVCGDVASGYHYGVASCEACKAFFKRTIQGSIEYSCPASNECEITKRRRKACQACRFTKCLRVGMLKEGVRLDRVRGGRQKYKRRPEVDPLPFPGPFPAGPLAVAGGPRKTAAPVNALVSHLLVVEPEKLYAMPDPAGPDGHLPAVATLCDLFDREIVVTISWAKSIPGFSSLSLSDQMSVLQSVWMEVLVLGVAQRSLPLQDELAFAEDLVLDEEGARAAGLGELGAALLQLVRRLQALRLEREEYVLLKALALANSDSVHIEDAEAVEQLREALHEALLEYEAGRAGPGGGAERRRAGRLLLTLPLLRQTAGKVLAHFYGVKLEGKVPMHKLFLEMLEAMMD

[5] = biological target: ZNF24 (Homo sapiens, UniProt P17028)
[6] = biological target: PAX6 (Homo sapiens, UniProt P26367)
Sequence of PAX6 (P26367 whole entry): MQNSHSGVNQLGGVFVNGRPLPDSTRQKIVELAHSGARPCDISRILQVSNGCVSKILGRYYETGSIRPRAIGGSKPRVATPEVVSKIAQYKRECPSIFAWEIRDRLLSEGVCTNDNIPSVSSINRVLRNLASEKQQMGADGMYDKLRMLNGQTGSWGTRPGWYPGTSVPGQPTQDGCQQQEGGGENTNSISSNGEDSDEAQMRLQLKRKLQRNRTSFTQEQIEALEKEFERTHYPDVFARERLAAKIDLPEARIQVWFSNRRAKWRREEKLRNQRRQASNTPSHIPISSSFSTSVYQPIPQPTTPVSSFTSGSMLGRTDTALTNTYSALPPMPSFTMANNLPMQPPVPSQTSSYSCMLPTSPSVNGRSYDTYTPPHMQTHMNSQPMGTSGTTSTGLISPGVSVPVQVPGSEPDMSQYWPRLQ

Sequence of ZNF24 (P17028 whole entry): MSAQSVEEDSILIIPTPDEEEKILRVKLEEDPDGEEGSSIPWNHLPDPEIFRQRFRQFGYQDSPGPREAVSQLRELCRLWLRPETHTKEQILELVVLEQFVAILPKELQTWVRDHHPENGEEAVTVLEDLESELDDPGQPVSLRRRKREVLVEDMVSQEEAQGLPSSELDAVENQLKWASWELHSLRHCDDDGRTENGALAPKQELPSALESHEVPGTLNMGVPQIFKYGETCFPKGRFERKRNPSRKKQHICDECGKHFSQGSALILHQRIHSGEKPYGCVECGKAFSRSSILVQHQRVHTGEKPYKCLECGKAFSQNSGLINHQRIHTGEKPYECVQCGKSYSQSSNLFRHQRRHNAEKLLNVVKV
Sequence of ZFHX3 (Q15911 whole entry): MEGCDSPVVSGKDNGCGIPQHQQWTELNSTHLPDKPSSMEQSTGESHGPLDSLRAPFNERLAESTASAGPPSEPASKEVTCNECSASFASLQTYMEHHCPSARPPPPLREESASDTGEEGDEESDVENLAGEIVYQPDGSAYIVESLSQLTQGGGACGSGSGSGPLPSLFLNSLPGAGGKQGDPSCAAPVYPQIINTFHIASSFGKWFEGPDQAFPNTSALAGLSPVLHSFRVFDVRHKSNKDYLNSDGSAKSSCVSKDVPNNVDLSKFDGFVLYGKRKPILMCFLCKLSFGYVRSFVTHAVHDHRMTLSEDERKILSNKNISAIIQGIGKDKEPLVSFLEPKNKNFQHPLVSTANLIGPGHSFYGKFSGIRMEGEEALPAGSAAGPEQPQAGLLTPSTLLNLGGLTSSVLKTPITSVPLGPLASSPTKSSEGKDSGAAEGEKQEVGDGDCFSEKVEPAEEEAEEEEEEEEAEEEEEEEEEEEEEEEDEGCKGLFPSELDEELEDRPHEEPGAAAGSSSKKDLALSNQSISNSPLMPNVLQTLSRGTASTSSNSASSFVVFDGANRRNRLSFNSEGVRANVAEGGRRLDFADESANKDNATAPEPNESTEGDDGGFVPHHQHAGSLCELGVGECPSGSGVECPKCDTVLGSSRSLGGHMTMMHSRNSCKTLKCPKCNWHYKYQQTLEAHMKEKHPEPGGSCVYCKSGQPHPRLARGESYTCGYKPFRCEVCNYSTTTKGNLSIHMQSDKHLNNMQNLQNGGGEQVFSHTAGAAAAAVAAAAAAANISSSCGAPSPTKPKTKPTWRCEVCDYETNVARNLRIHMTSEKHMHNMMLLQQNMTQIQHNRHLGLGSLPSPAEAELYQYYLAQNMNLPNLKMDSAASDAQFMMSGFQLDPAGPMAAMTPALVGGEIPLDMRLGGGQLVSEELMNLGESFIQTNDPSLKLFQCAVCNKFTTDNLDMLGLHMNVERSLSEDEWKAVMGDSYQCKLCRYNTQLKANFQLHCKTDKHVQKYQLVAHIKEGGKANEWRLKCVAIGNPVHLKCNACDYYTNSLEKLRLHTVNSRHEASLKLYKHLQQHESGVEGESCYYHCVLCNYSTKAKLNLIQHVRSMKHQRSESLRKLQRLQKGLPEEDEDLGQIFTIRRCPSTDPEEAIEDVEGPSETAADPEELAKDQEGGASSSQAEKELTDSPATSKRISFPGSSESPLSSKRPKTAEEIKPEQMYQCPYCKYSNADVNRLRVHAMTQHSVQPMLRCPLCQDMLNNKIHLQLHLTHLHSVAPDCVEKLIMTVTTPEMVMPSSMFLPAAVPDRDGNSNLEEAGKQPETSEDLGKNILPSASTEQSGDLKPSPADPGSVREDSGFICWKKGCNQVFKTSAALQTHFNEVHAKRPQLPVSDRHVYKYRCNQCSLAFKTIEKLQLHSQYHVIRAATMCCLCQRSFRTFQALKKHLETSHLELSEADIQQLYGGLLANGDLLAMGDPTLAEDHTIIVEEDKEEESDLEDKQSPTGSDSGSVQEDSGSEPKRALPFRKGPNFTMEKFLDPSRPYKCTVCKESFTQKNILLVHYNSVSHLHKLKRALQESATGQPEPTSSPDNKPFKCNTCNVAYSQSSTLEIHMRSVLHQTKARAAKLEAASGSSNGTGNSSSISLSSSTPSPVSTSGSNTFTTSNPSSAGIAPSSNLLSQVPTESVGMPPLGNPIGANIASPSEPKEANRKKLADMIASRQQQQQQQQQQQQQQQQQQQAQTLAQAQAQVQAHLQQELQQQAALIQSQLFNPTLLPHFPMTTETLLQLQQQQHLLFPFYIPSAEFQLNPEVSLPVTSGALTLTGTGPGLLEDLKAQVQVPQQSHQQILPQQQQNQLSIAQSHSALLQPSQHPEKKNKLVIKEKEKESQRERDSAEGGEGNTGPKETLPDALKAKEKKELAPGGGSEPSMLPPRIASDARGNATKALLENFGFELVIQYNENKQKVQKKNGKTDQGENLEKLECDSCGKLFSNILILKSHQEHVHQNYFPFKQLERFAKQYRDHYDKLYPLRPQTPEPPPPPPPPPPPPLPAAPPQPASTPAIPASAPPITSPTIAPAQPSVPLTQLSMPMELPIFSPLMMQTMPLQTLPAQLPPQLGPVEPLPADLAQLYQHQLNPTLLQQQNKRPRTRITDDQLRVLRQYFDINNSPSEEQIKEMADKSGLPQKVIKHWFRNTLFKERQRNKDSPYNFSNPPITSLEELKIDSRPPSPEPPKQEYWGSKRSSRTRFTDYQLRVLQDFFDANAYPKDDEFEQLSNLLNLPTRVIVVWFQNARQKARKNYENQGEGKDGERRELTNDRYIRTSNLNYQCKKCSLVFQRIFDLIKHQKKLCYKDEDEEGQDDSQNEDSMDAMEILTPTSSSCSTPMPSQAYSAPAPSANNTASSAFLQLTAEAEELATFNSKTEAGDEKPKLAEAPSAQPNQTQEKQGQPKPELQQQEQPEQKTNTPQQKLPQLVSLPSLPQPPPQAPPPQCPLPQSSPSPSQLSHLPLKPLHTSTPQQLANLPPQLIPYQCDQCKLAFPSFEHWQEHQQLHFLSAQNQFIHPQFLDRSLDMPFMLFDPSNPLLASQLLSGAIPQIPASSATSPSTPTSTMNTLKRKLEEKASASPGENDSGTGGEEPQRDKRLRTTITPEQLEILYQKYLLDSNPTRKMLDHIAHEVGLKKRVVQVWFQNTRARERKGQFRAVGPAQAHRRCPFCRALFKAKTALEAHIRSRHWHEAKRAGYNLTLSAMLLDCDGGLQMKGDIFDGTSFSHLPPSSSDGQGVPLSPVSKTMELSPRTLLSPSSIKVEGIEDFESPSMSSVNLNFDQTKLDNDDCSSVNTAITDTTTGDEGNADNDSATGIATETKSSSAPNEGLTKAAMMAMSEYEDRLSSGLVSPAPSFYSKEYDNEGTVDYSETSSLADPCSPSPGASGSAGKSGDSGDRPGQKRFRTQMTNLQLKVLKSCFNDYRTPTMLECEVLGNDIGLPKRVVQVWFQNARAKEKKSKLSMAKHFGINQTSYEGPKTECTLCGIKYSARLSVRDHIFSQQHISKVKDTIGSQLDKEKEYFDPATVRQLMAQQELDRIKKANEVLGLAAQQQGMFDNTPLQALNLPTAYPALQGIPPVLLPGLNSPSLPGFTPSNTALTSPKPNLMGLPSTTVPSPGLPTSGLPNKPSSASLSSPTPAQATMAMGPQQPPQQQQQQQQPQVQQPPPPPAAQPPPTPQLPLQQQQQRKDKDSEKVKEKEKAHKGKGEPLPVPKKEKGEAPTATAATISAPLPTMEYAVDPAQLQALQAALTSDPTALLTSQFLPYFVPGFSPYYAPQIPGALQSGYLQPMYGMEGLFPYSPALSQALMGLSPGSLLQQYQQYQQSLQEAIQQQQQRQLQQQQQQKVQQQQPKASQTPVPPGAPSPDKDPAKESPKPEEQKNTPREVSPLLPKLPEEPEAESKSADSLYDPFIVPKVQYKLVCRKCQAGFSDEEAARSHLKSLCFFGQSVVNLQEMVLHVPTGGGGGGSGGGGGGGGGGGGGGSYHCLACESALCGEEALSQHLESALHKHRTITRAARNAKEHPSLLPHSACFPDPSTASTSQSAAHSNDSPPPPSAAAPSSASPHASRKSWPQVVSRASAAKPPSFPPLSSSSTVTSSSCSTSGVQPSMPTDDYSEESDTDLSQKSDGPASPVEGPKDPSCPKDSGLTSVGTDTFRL

B1: TATA-box (dsDNA)
DNA 1: GCGGCGCTCTATATAAGTGGGCAGTG
DNA 2: CACTGCCCACTTATATAGAGCGCCGC
[1]
  apparent K (half saturation): 289 nM
[2]
  apparent K (half saturation): 98.7 nM

B2: CTCF (dsDNA)
DNA 1: TCAGAGTGGCGGCCAGCAGGGGGCGCCCTTGCCAGA
DNA 2: TCTGGCAAGGGCGCCCCCTGCTGGCCGCCACTCTGA
[3]
  apparent K (half saturation): 347 nM
[4]
  apparent K (half saturation): 319 nM
[5]
  apparent K (half saturation): 388 nM

B3: TEAD (dsDNA)
DNA 1: TCGGGACCCAGGCCTGGAATGTTTCCACC
DNA 2: GGTGGAAACATTCCAGGCCTGGGTCCCGA
[6]
  apparent K (half saturation): 191 nM
